Reference: patent US20050074854A1 (TRIPEP, published 2005)

Target: gp120 of HIV-1 IIIB (on virus) (HIV-1 IIIB)
Test: cell-based or functional assay

KILGNQGSFLTKGPS [CD4 peptide Seq. Id. No. 6 without the coupled sugar]
< 0.3 fraction neutralized (0.3 = 30%): neutralization of HIV-1 IIIB (reduction of syncytia/PFU, U87/CD4 cells); CD4 peptide alone, 0.1 ug/ml | neutralization of HIV-1 IIIB (reduction of syncytia/PFU, U87/CD4 cells); CD4 peptide alone, 1 ug/ml | neutralization of HIV-1 IIIB (reduction of syncytia/PFU, U87/CD4 cells); CD4 peptide alone, 10 ug/ml

NSNQIKILGNQGSFL [CD4 peptide Seq. Id. No. 5 without the coupled sugar]
< 0.3 fraction neutralized (0.3 = 30%): neutralization of HIV-1 IIIB (reduction of syncytia/PFU, U87/CD4 cells); CD4 peptide alone, 0.1 ug/ml | neutralization of HIV-1 IIIB (reduction of syncytia/PFU, U87/CD4 cells); CD4 peptide alone, 1 ug/ml | neutralization of HIV-1 IIIB (reduction of syncytia/PFU, U87/CD4 cells); CD4 peptide alone, 10 ug/ml

QGSFLTKGPSKLNDR [CD4 peptide Seq. Id. No. 7 without the coupled sugar]
< 0.3 fraction neutralized (0.3 = 30%): neutralization of HIV-1 IIIB (reduction of syncytia/PFU, U87/CD4 cells); CD4 peptide alone, 0.1 ug/ml | neutralization of HIV-1 IIIB (reduction of syncytia/PFU, U87/CD4 cells); CD4 peptide alone, 1 ug/ml | neutralization of HIV-1 IIIB (reduction of syncytia/PFU, U87/CD4 cells); CD4 peptide alone, 10 ug/ml

QFHWKNSNQIKILGN [CD4 peptide Seq. Id. No. 4 without the coupled sugar]
< 0.3 fraction neutralized (0.3 = 30%): neutralization of HIV-1 IIIB (reduction of syncytia/PFU, U87/CD4 cells); CD4 peptide alone, 0.1 ug/ml | neutralization of HIV-1 IIIB (reduction of syncytia/PFU, U87/CD4 cells); CD4 peptide alone, 1 ug/ml | neutralization of HIV-1 IIIB (reduction of syncytia/PFU, U87/CD4 cells); CD4 peptide alone, 10 ug/ml
